# Measurements: IntAct's records for PubMed 34927784
# Key:
# cxcr4_human CXCR4 = cxcr4_human CXCR4 (UniProt P61073)
# erep1_human ENTREP1 = erep1_human ENTREP1 (UniProt Q15884)
# erep1_human ENTREP1, sequence (Q15884 whole entry): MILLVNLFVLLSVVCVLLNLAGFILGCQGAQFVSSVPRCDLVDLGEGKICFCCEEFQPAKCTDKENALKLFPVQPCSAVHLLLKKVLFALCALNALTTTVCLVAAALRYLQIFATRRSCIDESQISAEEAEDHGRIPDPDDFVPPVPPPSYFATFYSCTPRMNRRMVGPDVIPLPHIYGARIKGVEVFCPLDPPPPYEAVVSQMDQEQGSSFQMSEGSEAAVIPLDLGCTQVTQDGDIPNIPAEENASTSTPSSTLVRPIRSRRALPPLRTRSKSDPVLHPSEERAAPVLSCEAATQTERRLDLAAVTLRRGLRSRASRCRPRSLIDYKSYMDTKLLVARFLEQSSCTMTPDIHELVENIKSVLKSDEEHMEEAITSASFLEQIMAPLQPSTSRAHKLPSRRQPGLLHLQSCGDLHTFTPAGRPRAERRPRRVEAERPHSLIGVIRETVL
# E3 ubiquitin-protein ligase Itchy homolog (Homo sapiens), Q96J02-2 C830A, sequence (Q96J02 other isoform, or with tags, fused parts or gaps C830A): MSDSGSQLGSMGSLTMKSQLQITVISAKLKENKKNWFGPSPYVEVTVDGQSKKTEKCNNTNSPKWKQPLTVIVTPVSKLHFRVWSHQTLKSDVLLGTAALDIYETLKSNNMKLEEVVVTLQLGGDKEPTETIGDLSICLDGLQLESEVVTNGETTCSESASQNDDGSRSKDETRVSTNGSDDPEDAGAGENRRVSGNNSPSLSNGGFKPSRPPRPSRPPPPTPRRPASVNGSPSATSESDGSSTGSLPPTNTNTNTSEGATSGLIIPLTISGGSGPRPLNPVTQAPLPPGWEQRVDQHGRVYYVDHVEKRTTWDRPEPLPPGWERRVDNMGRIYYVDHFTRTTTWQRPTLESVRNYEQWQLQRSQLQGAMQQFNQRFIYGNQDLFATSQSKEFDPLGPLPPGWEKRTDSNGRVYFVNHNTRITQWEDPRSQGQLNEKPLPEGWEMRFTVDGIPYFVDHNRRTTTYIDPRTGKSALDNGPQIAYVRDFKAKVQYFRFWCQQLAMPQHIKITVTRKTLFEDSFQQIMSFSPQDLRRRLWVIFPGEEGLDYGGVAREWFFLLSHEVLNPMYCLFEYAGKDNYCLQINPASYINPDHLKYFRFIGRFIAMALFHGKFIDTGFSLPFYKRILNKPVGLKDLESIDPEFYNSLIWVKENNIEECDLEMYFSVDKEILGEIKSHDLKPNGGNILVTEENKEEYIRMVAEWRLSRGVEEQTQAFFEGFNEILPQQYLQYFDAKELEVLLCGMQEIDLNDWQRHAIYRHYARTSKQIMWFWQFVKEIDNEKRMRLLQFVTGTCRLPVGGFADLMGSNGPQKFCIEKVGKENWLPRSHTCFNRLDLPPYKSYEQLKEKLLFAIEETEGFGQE
# cxcr4_human CXCR4, sequence (P61073 whole entry): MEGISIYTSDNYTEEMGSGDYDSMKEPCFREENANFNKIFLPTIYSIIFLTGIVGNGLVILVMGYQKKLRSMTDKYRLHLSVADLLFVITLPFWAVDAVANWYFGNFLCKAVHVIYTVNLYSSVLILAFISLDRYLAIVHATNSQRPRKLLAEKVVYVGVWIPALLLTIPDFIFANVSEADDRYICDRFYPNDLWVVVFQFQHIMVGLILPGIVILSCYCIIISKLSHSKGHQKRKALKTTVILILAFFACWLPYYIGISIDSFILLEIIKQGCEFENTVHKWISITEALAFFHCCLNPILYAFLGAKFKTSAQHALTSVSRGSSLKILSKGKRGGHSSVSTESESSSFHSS
substance,measurement,setting,value
"E3 ubiquitin-protein ligase Itchy homolog (Homo sapiens), Q96J02-2 C830A",effect of a mutation on the interaction,cxcr4_human CXCR4,with no effect
same,effect of a mutation on the interaction,erep1_human ENTREP1,with no effect
